Source: article PMC3656113

What was measured:
[1] = target: recombinant human PAFr coupled to the G-protein Giα3β1γ2 (UniProt P25105); assay: ELISA
[2] = target: recombinant human PAFr coupled to the G-protein Giα2β1γ2 (UniProt P25105); assay: ELISA
[3] = target: platelet activating factor receptor (PAFr) of 16HBE14 human bronchial epithelial cells (human (endogenous in 16HBE14)) (UniProt P25105)

pili of N. meningitidis strain 8013SBpptA8G (ChoP+) (natural protein)
> 2 fold: fold increase against pili of 8013SB WT [1] | fold increase against pili of 8013SB WT [2] | adherence of 8013SBpptA8G bacteria to Chem-1-PAFr cells, fold increase against 8013SB WT bacteria (fluorescence, 30 min) [3]
